Measurements: the supplement of paper PMC9112550, “Optimization of the antimicrobial peptide Bac7 by deep mutational scanning” (BMC Biology, 2022)

What follows are sequences tested on Escherichia coli TOP10 (assay: shrunken log2 fold change of peptide-encoding DNA abundance (4.5 h post-induction vs induction); higher = less antimicrobial activity (less host growth inhibition)). Details: time post-induction: 4.5 h; library: site-saturation at positions 5, 18, 19, 20.
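Also: peptides expressed intracellularly from a pBAD plasmid library in pooled LB shake-flask culture, induced with 0.3% L-arabinose, DNA abundance read by NGS, three biological replicates, DESeq2 with apeglm shrinkage.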

First: RRIRIRPPRLPRPRPRPHVHPRP
Second: RRIRKRPPRLPRPRPRPLKNPRP
The “shrunken log2 fold change” value of the first is lower: -0.165 for the first, 0.211 for the second.

RRIRTRPPRLPRPRPRPEKCPRP and RRIRYRPPRLPRPRPRPSDWPRP are within 0.2 log units of each other in “shrunken log2 fold change” value: 0.0324 for the first, -0.152 for the second.

First: RRIRERPPRLPRPRPRPHHEPRP
Second: RRIRRRPPRLPRPRPRPRYEPRP
The “shrunken log2 fold change” value of the first is lower: -0.191 for the first, 0.0341 for the second.

RRIRFRPPRLPRPRPRPAPEPRP and RRIRTRPPRLPRPRPRPIAAPRP are within 0.2 log units of each other in “shrunken log2 fold change” value: 0.81 for the first, 0.894 for the second.

Compared with RRIRHRPPRLPRPRPRPYTTPRP, RRIRHRPPRLPRPRPRPSIDPRP is higher in “shrunken log2 fold change” value: -1.14 for the first, -0.617 for the second.

Going from RRIRERPPRLPRPRPRPGTQPRP to RRIRFRPPRLPRPRPRPYDAPRP, the “shrunken log2 fold change” value falls from -0.0335 to -1.06.

Going from RRIRTRPPRLPRPRPRPDAKPRP to RRIRVRPPRLPRPRPRPHTIPRP, the “shrunken log2 fold change” value falls from 0.395 to -0.487.

Compared with RRIRSRPPRLPRPRPRPWNGPRP, RRIRKRPPRLPRPRPRPPFVPRP is higher in “shrunken log2 fold change” value: -0.0136 for the first, 0.209 for the second.

Compared with RRIRLRPPRLPRPRPRPPFPPRP, RRIRERPPRLPRPRPRPLPEPRP is lower in “shrunken log2 fold change” value: 0.455 for the first, 0.0716 for the second.

First: RRIRWRPPRLPRPRPRPHSEPRP
Second: RRIRERPPRLPRPRPRPIWFPRP
The “shrunken log2 fold change” value of the first is lower: -0.162 for the first, 0.0591 for the second.

RRIRNRPPRLPRPRPRPIGVPRP and RRIRKRPPRLPRPRPRPSQFPRP are within 0.2 log units of each other in “shrunken log2 fold change” value: 0.249 for the first, 0.164 for the second.

First: RRIRSRPPRLPRPRPRPFESPRP
Second: RRIRSRPPRLPRPRPRPEFMPRP
The “shrunken log2 fold change” value of the first is lower: -0.258 for the first, 0.135 for the second.

Compared with RRIRKRPPRLPRPRPRPRWAPRP, RRIRFRPPRLPRPRPRPCILPRP is lower in “shrunken log2 fold change” value: 0.469 for the first, -0.0567 for the second.

RRIRSRPPRLPRPRPRPIDEPRP and RRIRIRPPRLPRPRPRPRAMPRP are within 0.2 log units of each other in “shrunken log2 fold change” value: 0.0325 for the first, -0.0601 for the second.

Compared with RRIRFRPPRLPRPRPRPREWPRP, RRIRPRPPRLPRPRPRPSQGPRP is lower in “shrunken log2 fold change” value: 0.112 for the first, -0.418 for the second.

RRIRCRPPRLPRPRPRPGQHPRP and RRIRPRPPRLPRPRPRPCYFPRP are within 0.2 log units of each other in “shrunken log2 fold change” value: 0.00766 for the first, -0.0997 for the second.

RRIRERPPRLPRPRPRPTCNPRP and RRIRERPPRLPRPRPRPQWLPRP are within 0.2 log units of each other in “shrunken log2 fold change” value: -0.315 for the first, -0.168 for the second.

RRIRWRPPRLPRPRPRPVRKPRP and RRIRFRPPRLPRPRPRPREFPRP are within 0.2 log units of each other in “shrunken log2 fold change” value: 0.167 for the first, 0.0793 for the second.

Going from RRIRFRPPRLPRPRPRPEQDPRP to RRIRRRPPRLPRPRPRPIVNPRP, the “shrunken log2 fold change” value falls from 1.57 to -0.205.

Going from RRIRQRPPRLPRPRPRPFMWPRP to RRIRLRPPRLPRPRPRPMWAPRP, the “shrunken log2 fold change” value rises from -0.245 to 0.0661.

Compared with RRIRWRPPRLPRPRPRPAIHPRP, RRIRRRPPRLPRPRPRPRELPRP is higher in “shrunken log2 fold change” value: 0.039 for the first, 0.887 for the second.

Compared with RRIRVRPPRLPRPRPRPSCIPRP, RRIRARPPRLPRPRPRPSLMPRP is higher in “shrunken log2 fold change” value: -0.423 for the first, 0.0307 for the second.

RRIRSRPPRLPRPRPRPHNYPRP and RRIRFRPPRLPRPRPRPKIVPRP are within 0.2 log units of each other in “shrunken log2 fold change” value: -0.372 for the first, -0.207 for the second.

RRIRLRPPRLPRPRPRPLQIPRP and RRIRYRPPRLPRPRPRPKSLPRP are within 0.2 log units of each other in “shrunken log2 fold change” value: -0.092 for the first, -0.204 for the second.

RRIRNRPPRLPRPRPRPMDQPRP and RRIRLRPPRLPRPRPRPYIGPRP are within 0.2 log units of each other in “shrunken log2 fold change” value: -0.01 for the first, -0.129 for the second.

First: RRIRCRPPRLPRPRPRPKANPRP
Second: RRIRCRPPRLPRPRPRPLFIPRP
The “shrunken log2 fold change” value of the first is higher: 1.15 for the first, -0.51 for the second.

Going from RRIRMRPPRLPRPRPRPFHPPRP to RRIRQRPPRLPRPRPRPCDWPRP, the “shrunken log2 fold change” value rises from -0.0444 to 0.202.

RRIRVRPPRLPRPRPRPESVPRP and RRIRSRPPRLPRPRPRPIIIPRP are within 0.2 log units of each other in “shrunken log2 fold change” value: -0.204 for the first, -0.159 for the second.

Compared with RRIRKRPPRLPRPRPRPIVCPRP, RRIRGRPPRLPRPRPRPPDNPRP is higher in “shrunken log2 fold change” value: -0.00674 for the first, 0.795 for the second.

RRIRERPPRLPRPRPRPGAPPRP and RRIRVRPPRLPRPRPRPKPKPRP are within 0.2 log units of each other in “shrunken log2 fold change” value: 0.301 for the first, 0.312 for the second.

RRIRHRPPRLPRPRPRPMVWPRP and RRIRRRPPRLPRPRPRPWPHPRP are within 0.2 log units of each other in “shrunken log2 fold change” value: 0.0787 for the first, -0.0473 for the second.

RRIRNRPPRLPRPRPRPNTFPRP and RRIRLRPPRLPRPRPRPDTMPRP are within 0.2 log units of each other in “shrunken log2 fold change” value: -0.332 for the first, -0.286 for the second.

RRIRCRPPRLPRPRPRPMYAPRP and RRIRGRPPRLPRPRPRPFIHPRP are within 0.2 log units of each other in “shrunken log2 fold change” value: 0.0401 for the first, 0.0282 for the second.

Compared with RRIRGRPPRLPRPRPRPVQEPRP, RRIRPRPPRLPRPRPRPPLHPRP is lower in “shrunken log2 fold change” value: 0.873 for the first, 0.21 for the second.

Going from RRIRQRPPRLPRPRPRPQNHPRP to RRIRQRPPRLPRPRPRPYQPPRP, the “shrunken log2 fold change” value rises from -0.481 to -0.0272.

Going from RRIRIRPPRLPRPRPRPTLKPRP to RRIRLRPPRLPRPRPRPRGAPRP, the “shrunken log2 fold change” value rises from -0.132 to 0.425.

RRIRARPPRLPRPRPRPSQDPRP and RRIRERPPRLPRPRPRPRLQPRP are within 0.2 log units of each other in “shrunken log2 fold change” value: 0.196 for the first, 0.0143 for the second.

First: RRIRGRPPRLPRPRPRPETVPRP
Second: RRIRARPPRLPRPRPRPCDVPRP
The “shrunken log2 fold change” value of the first is higher: 0.431 for the first, 0.212 for the second.

RRIRCRPPRLPRPRPRPQWRPRP and RRIRKRPPRLPRPRPRPWKMPRP are within 0.2 log units of each other in “shrunken log2 fold change” value: 0.274 for the first, 0.0749 for the second.

RRIRCRPPRLPRPRPRPVYKPRP and RRIRLRPPRLPRPRPRPHMNPRP are within 0.2 log units of each other in “shrunken log2 fold change” value: -0.595 for the first, -0.686 for the second.

Compared with RRIRPRPPRLPRPRPRPLREPRP, RRIRARPPRLPRPRPRPWSLPRP is lower in “shrunken log2 fold change” value: 0.783 for the first, -0.181 for the second.

RRIRWRPPRLPRPRPRPGLTPRP and RRIRKRPPRLPRPRPRPVDKPRP are within 0.2 log units of each other in “shrunken log2 fold change” value: 0.0693 for the first, 0.0581 for the second.

Compared with RRIRFRPPRLPRPRPRPDRIPRP, RRIRMRPPRLPRPRPRPRPGPRP is higher in “shrunken log2 fold change” value: 0.0156 for the first, 1.38 for the second.

First: RRIRSRPPRLPRPRPRPDVSPRP
Second: RRIRFRPPRLPRPRPRPKHIPRP
The “shrunken log2 fold change” value of the first is higher: -0.0357 for the first, -0.615 for the second.

RRIRNRPPRLPRPRPRPVGEPRP and RRIRRRPPRLPRPRPRPVDSPRP are within 0.2 log units of each other in “shrunken log2 fold change” value: 0.112 for the first, 0.127 for the second.

Going from RRIRMRPPRLPRPRPRPGFDPRP to RRIRIRPPRLPRPRPRPPYDPRP, the “shrunken log2 fold change” value falls from 0.908 to -0.814.

First: RRIRIRPPRLPRPRPRPDRFPRP
Second: RRIRARPPRLPRPRPRPFVDPRP
The “shrunken log2 fold change” value of the first is lower: 0.0544 for the first, 0.302 for the second.

RRIRWRPPRLPRPRPRPRKWPRP and RRIRGRPPRLPRPRPRPAGPPRP are within 0.2 log units of each other in “shrunken log2 fold change” value: 0.526 for the first, 0.644 for the second.

Compared with RRIRARPPRLPRPRPRPTGWPRP, RRIRSRPPRLPRPRPRPLHVPRP is lower in “shrunken log2 fold change” value: 0.756 for the first, -0.245 for the second.

Compared with RRIRMRPPRLPRPRPRPNPTPRP, RRIRERPPRLPRPRPRPPFGPRP is lower in “shrunken log2 fold change” value: 0.849 for the first, 0.577 for the second.

RRIRTRPPRLPRPRPRPMEHPRP and RRIRSRPPRLPRPRPRPAMMPRP are within 0.2 log units of each other in “shrunken log2 fold change” value: 0.118 for the first, -0.0721 for the second.

Compared with RRIRRRPPRLPRPRPRPNWAPRP, RRIRSRPPRLPRPRPRPLCHPRP is lower in “shrunken log2 fold change” value: 0.164 for the first, -0.157 for the second.

Going from RRIRARPPRLPRPRPRPVVMPRP to RRIRHRPPRLPRPRPRPMGLPRP, the “shrunken log2 fold change” value falls from 0.282 to 0.00622.

RRIRERPPRLPRPRPRPIPFPRP and RRIRHRPPRLPRPRPRPSICPRP are within 0.2 log units of each other in “shrunken log2 fold change” value: -0.0238 for the first, 0.0424 for the second.

In the case of RRIRNRPPRLPRPRPRPLSCPRP, the “shrunken log2 fold change” value is reported as -0.238.
